What all share (type): binding
In experiment [1] the target is T1, TRAF1 (Homo sapiens, UniProt Q13077).
T1 construct: the TRAF1 TRAF domain (amino acid residues 220-416); 6xHis (C); made in house; host or cells: E. coli BL21 (DE3)
T1 sequence (Q13077 220-416): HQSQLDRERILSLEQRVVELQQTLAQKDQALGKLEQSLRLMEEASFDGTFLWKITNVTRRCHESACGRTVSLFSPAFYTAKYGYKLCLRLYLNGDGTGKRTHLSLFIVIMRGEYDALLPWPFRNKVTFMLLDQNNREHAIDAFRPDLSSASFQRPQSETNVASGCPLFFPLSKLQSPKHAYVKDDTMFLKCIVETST
The experiment in a line: Native-PAGE complex formation with TRAF1. The settings on record: 8% to 25% acrylamide gradient gels, Coomassie; 1 h at 4 °C; TRAF1 TRAF domain (220-416). The text has this: (§1) TRADD is a well-known regulator of the TRAF function. The death domain located at the C-terminus of TRADD interacts with death-domain containing receptors and adaptor proteins including TNFR, receptor interacting protein 1 (RIP1) and Fas-associated death domain protein (FADD), while the N-terminal domain of TRADD (TRADD-N) interacts with the TRAF domain of TRAF2 (Figure 2a). Although several indirect interactions between TRAF1 and TRADD have been described, a direct interaction and direct analyses between TRAF1 and TRADD have not been reported. To directly study their interactions and binding properties, which may provide important clues for understanding TRAF-mediated signaling by TRADD, TRAFs and TRADD-N were purified, and initial interaction testing was performed by Native-PAGE. […] Although TRAF1 did interact with TRADD-N, this interaction was not as tight as with TRAF2 (Figure 2b). To further confirm this association, the interaction between the TRAFs and TRADD-N was further tested by size-exclusion chromatography. […]
(§2) The formation of complexes was assayed by native (non-denaturing) PAGE conducted on a PhastSystem (GE Healthcare) with pre-cast 8% to 25% acrylamide gradient gels (GE Healthcare). […] Complex formation was evaluated based on the appearance of newly formed bands or the disappearance of bands that were detected in single control protein bands.

Experiment [2] addresses T2, TRAF2 (Homo sapiens, UniProt Q12933).
T2 construct: TRAF2 TRAF domain (amino acid residues 305-501); 6xHis (C); made in house; host or cells: E. coli BL21 (DE3)
T2 sequence (Q12933 305-501): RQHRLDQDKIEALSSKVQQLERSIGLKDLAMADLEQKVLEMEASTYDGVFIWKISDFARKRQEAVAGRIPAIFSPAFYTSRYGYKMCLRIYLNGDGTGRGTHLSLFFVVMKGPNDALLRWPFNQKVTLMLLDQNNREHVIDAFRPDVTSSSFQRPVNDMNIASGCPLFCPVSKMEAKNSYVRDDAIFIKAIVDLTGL
The experiment in a line: Native-PAGE complex formation with TRAF2. The conditions noted are these: 8% to 25% acrylamide gradient gels, Coomassie; 1 h at 4 °C; TRAF2 TRAF domain (305-501).
From the text: as §1, §2

In experiment [3] the target is T1, TRAF1. Kind of experiment: Complex formation assay by gel-filtration (size-exclusion) chromatography with TRAF1. The conditions noted are these: Superdex 200 10/30, 20 mM Tris pH 8.0, 150 mM NaCl; 1 h at 4 °C; peak shift approximately 16 mL.
From the text: as §1
(§3) Purified TRAF domains and TRADD-N proteins were mixed, incubated at 4 °C for 1 h, and concentrated to 4 to 5 mg/mL using a protein concentration kit (Millipore). […] Complex assembly was evaluated based on the positions of eluted protein peaks monitored at 280 nm followed by SDS-PAGE.

Experiment [4] has as its target T2, TRAF2. Kind of experiment: Complex formation assay by gel-filtration (size-exclusion) chromatography with TRAF2. The settings on record: Superdex 200 10/30, 20 mM Tris pH 8.0, 150 mM NaCl; 1 h at 4 °C; peak around 14 mL.
From the text: as §1, §3

B1: TRADD-N: N-terminal domain of TRADD (TRADD-N, amino acid residues 1-163) (protein)
chain: MAAGQNGHEEWVGSAYLFVESSLDKVVLSDAYAHPQQKVAVYRALQAALAESGGSPDVLQMLKIHRSDPQLIVQLRFCGRQPCGRFLRAYREGALRAALQRSLAAALAQHSVPLQLELRAGAERLDALLADEERCLSCILAQQPDRLRDEELAELEDALRNLK
modifications: left off: His6 (from the vector pET24a), C-terminal, state not stated
Turning to B1, in the experiment with TRAF1 [1], the “Native-PAGE band change on incubation with TRAF1” value is listed as “only a small portion of the TRADD-N band disappeared”. In addition, the “Native-PAGE band change on incubation with TRAF2” value in the experiment with TRAF2 [2] is recorded as “the TRADD-N band was completely absent, forming a new complex band”. For the same molecule, the “co-migration with TRAF1 in size-exclusion chromatography / SDS-PAGE” value in the experiment with TRAF1 [3] is recorded as “TRADD-N did not perfectly co-migrate with TRAF1”. Besides, the “co-migration with TRAF2 in size-exclusion chromatography / SDS-PAGE” value with TRAF2 [4] was “co-migrated well with TRADD-N at similar intensities”.

The values are drawn from publication PMC7215387, “Comparison of Target Recognition by TRAF1 and TRAF2” (International Journal of Molecular Sciences, 2020).
